Where two headings read alike, the source gives them in different places. Square brackets hold non-standard residues; d marks the D form. Ends that are not written are not given here.

This test concerns the target tetrameric transthyretin (TTR) (Homo sapiens, UniProt P02766). Briefly: In-solution kinetics analysis of TTR-Aβ interactions via OpenSPR. Format: binding. The note with it: for koff: dissociation rate constant. The procedure:
One of the most common applications of SPR is the analysis and quantification of the interactions between proteins. SPR experiments were performed using a Nicoya Lifesciences OpenSPR system equipped with a COOH chip. Following the start-up procedure found in the OpenSPR™ manual, setup the OpenSPR™ instrument and load a COOH Sensor Chip. The COOH surface was activated following the instructions included in the Amine kit. The ligand was diluted to a concentration of 45 μg/mL into immobilization buffer (provided by Nicoya Lifesciences, pH 4.5) and 100 μL was injected at 20 μL/min for a 5-min interaction time. […] Immobilization was monitored via absorbance change in a standard solution of filtered buffer (PBS, pH 6.8, with 0.005% Tween 20) for 5 min at a flow rate of 50 μl/min. The surface was blocked with an injection of 100 μL of blocking buffer (provided by Nicoya Lifesciences, 1 M ethanolamine, pH 8.5). […] An association time of 150 s and a dislocation time of 400 s were used. The surface was regenerated with an injection of regeneration buffer (HCl 10 mM, pH 2.0) at a speed of 150 μL/min between each analyte injection. The chip was washed in 10 mM HCl (pH 2.0) to remove impurities. Data were collected at a rate of 5 Hz and was single referenced with blank injections. Data were fit to a 1:1 interaction model using the analysis software TraceDrawer.

[1] abbreviates: OpenSPR, association rate constant, immobilized TTR, PBS pH 6.8, 0.005% Tween 20, 1:1 model, average of three ± SD.
The mark [2] stands for this setting: OpenSPR, immobilized TTR, PBS pH 6.8, 0.005% Tween 20, 1:1 model, average of three ± SD.
[3] abbreviates: OpenSPR, Replicate #1, read-out: ka.
[4] abbreviates: OpenSPR, Replicate #2, read-out: ka.
Setting [5] is: OpenSPR, Replicate #3, read-out: ka.
Setting [6] is: pH 6.8, OpenSPR, association rate constant, immobilized TTR, PBS pH 6.8, 0.005% Tween 20, 1:1 model, average of three ± SD, read-out: Ka (1/(M*s)) × 10^−2.

Usually Kd stands for the equilibrium constant for the complex coming apart. The low end stands for a tighter complex, the high end for a looser complex. Where the note is “OpenSPR, Replicate #1”, “dS Aβ (17–36): Aβ (17–36) with D-isomerized Ser (LVFFAEDVG[dS]NKGAIIGLMV)” showed a Kd of 86.9 µM, a ka of 1660 M⁻¹ s⁻¹ and a kd of 0.144 s⁻¹. Where the note is “OpenSPR, Replicate #2”, this compound returned a Kd of 220 µM, a ka of 657 M⁻¹ s⁻¹ and a kd of 0.144 s⁻¹. Besides, for the setting “OpenSPR, Replicate #3”, the Kd came out at 47.3 µM, the ka was 1150 M⁻¹ s⁻¹ and the kd turned out to be 0.0546 s⁻¹. Moreover, the “Ka (1/(M*s)) × 10^−2” value under setting [1] was 11.6 ± 2.5 1/(M*s) × 10^−2. Moreover, under setting [2], the koff is listed as 11.4 ± 2.6 1/s × 10^2.
As to `CC[C@H](C)[C@H](NC(=O)[C@H](C)NC(=O)CNC(=O)[C@H](CCCCN)NC(=O)[C@H](CC(N)=O)NC(=O)[C@@H](CO)NC(=O)CNC(=O)[C@@H](NC(=O)[C@@H](CC(=O)O)NC(=O)[C@H](CCC(=O)O)NC(=O)[C@H](C)NC(=O)[C@H](Cc1ccccc1)NC(=O)[C@H](Cc1ccccc1)NC(=O)[C@@H](NC(=O)[C@@H](N)CC(C)C)C(C)C)C(C)C)C(=O)N[C@H](C(=O)NCC(=O)N[C@@H](CC(C)C)C(=O)N[C@@H](CCSC)C(=O)N[C@H](C(=O)O)C(C)C)[C@@H](C)CC` [dDdS Aβ (17–36)], the kon is, setting by setting: under setting [3], 3490 M⁻¹ s⁻¹; under setting [4], 818 M⁻¹ s⁻¹; under setting [5], 1470 M⁻¹ s⁻¹; under setting [6], 1930 ± 700 M⁻¹ s⁻¹. The “binding dissociation rate constant higher than the WT Aβ (17–36) fragment” value (OpenSPR, tetrameric TTR, relative to WT Aβ (17–36)) is on record as ~ 13 folds.
Consider `CC[C@H](C)[C@H](NC(=O)[C@H](C)NC(=O)CNC(=O)[C@H](CCCCN)NC(=O)[C@H](CC(N)=O)NC(=O)[C@H](CO)NC(=O)CNC(=O)[C@@H](NC(=O)[C@H](CC(=O)O)NC(=O)[C@H](CCC(=O)O)NC(=O)[C@H](C)NC(=O)[C@H](Cc1ccccc1)NC(=O)[C@H](Cc1ccccc1)NC(=O)[C@@H](NC(=O)[C@@H](N)CC(C)C)C(C)C)C(C)C)C(=O)N[C@H](C(=O)NCC(=O)N[C@@H](CC(C)C)C(=O)N[C@@H](CCSC)C(=O)N[C@H](C(=O)O)C(C)C)[C@@H](C)CC` [WT Aβ (17–36)], for which the kon came to 886 M⁻¹ s⁻¹ under setting [3], 586 M⁻¹ s⁻¹ under setting [4], 603 M⁻¹ s⁻¹ under setting [5] and 690 ± 80 M⁻¹ s⁻¹ under setting [6].
“dD Aβ (17–36): Aβ (17–36) with D-isomerized Asp (LVFFAE[dD]VGSNKGAIIGLMV)”: the Kd is 116 µM (OpenSPR, Replicate #1); 199 µM (OpenSPR, Replicate #2); 133 µM (OpenSPR, Replicate #3). The ka (OpenSPR, Replicate #1) was determined as 1720 M⁻¹ s⁻¹; the ka (OpenSPR, Replicate #2) was determined as 489 M⁻¹ s⁻¹; the ka (OpenSPR, Replicate #3) worked out at 753 M⁻¹ s⁻¹. Also, the kd was found to be 0.199 s⁻¹ (OpenSPR, Replicate #1); 0.0975 s⁻¹ (OpenSPR, Replicate #2); 0.1 s⁻¹ (OpenSPR, Replicate #3). Besides, the “Ka (1/(M*s)) × 10^−2” value under setting [1] was 9.9 ± 3.2 1/(M*s) × 10^−2. Also, the koff under setting [2] is on record as 13.2 ± 2.9 1/s × 10^2.
